Reference: article PMC10512297, “The Penicillium chrysogenum tom1 Gene a Major Target of Transcription Factor MAT1-1-1 Encodes a Nuclear Protein Involved in Sporulation”

Assays:
GST-MAT1-1-1 = target: T1, GST-MAT1-1-1 (Penicillium chrysogenum, UniProt B1GVB9 1-342); test: EMSA; 2.5 uM protein; self-competition by unlabelled tom1-2; EMSA: 20 ul reaction, 20 min at room temperature, native 4% polyacrylamide gel, 120 V 2-3 h; buffer, salt and pH not given (Ramsak et al. 2021 protocol); details: protein: recombinant; tags: N-terminal GST; chain copies: 2; label: 32P (probe); blunt
T1 sequence: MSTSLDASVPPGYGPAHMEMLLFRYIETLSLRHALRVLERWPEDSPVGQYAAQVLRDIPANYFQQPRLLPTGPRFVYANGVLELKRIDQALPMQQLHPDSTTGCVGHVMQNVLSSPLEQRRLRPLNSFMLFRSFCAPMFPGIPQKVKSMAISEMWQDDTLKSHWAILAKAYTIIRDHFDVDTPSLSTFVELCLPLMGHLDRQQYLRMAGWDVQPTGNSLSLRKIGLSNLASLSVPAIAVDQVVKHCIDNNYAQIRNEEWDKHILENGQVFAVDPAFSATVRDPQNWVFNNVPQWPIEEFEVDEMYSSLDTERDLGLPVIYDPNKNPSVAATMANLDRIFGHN

[1] = target: T2, GST-MAT1-1-1;MAT1-2-1 (GST removed) (Penicillium chrysogenum;Penicillium …, UniProt B1GVB9;B1GVC0 1-342;1-303, |); test: EMSA; 4 uM each protein; complex faster than with GST-MAT1-2-1; EMSA: 20 ul reaction, 20 min at room temperature, native 4% polyacrylamide gel, 120 V 2-3 h; buffer, salt and pH not given (Ramsak et al. 2021 protocol); details: protein: recombinant;recombinant; tags: N-terminal GST;none (GST removed by TEV protease); label: 32P (probe); blunt
T2 sequence 1: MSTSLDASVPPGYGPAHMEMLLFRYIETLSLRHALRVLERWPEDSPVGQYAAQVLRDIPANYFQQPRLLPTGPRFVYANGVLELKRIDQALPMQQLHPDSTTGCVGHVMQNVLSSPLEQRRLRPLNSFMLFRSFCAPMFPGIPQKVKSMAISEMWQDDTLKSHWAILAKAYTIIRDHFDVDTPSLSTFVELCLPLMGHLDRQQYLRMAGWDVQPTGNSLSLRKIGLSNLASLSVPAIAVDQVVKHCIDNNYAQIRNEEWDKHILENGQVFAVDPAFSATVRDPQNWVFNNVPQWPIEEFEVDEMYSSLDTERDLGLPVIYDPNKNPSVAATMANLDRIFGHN
T2 sequence 2: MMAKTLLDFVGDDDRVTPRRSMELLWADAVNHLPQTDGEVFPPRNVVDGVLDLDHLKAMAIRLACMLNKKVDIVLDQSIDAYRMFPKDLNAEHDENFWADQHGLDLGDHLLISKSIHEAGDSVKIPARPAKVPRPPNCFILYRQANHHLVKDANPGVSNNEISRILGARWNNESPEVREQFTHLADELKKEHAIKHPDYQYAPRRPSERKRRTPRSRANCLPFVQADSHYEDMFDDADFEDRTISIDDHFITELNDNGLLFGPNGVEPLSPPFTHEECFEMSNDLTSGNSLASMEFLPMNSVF

GST-MAT1-2-1 = target: T3, GST-MAT1-2-1 (Penicillium chrysogenum PC3, UniProt B1GVC0 1-303); test: EMSA; 7 uM protein; more protein needed than for GST-MAT1-1-1; self-competition by unlabelled tom1-2; EMSA: 20 ul reaction, 20 min at room temperature, native 4% polyacrylamide gel, 120 V 2-3 h; buffer, salt and pH not given (Ramsak et al. 2021 protocol); details: protein: recombinant; tags: N-terminal GST; label: 32P (probe); blunt
T3 sequence: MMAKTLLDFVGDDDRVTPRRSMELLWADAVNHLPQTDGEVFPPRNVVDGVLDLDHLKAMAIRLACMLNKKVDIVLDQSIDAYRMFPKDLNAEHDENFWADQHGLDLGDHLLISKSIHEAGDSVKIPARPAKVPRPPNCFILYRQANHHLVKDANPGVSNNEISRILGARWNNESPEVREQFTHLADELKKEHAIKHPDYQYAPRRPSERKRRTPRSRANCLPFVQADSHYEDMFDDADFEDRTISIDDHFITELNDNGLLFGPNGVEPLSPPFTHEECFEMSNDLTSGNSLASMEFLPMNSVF

[2] = target: T4, GST-MAT1-1-1;GST-MAT1-2-1 (Penicillium chrysogenum;Penicillium …, UniProt B1GVB9;B1GVC0 1-342;1-303, |); test: EMSA; 4 uM each protein; slower migrating complex; EMSA: 20 ul reaction, 20 min at room temperature, native 4% polyacrylamide gel, 120 V 2-3 h; buffer, salt and pH not given (Ramsak et al. 2021 protocol); details: protein: recombinant;recombinant; tags: N-terminal GST;N-terminal GST; label: 32P (probe); blunt
T4 sequence 1: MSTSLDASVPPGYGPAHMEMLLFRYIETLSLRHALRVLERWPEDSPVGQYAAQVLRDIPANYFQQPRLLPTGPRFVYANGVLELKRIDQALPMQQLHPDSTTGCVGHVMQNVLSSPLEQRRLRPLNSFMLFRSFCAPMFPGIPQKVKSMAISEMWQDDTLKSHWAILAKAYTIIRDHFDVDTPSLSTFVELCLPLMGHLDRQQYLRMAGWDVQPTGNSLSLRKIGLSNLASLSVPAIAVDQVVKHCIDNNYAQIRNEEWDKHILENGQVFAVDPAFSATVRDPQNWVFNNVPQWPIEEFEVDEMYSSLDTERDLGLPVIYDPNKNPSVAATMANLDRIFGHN
T4 sequence 2: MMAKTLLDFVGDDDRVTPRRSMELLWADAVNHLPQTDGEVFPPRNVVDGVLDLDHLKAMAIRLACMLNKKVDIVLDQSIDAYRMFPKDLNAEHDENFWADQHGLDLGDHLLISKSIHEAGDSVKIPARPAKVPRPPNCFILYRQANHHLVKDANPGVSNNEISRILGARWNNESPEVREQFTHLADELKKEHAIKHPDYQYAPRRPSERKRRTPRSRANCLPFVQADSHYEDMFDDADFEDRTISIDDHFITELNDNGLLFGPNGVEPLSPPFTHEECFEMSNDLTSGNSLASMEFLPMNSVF

Measured: binding result

B1: tom1-2 (dsDNA)
DNA 1: TCACGTGATCTCTATTGAGAACAATAGAA
DNA 2: TTCTATTGTTCTCAATAGAGATCACGTGA
binds: all assays above
